According to patent US8975044B2, “Polynucleotides encoding for frizzled-binding agents and uses thereof” (OncoMed Pharmaceuticals, Inc., priority 2008, dated 2015):

T1: FZD8 (Homo sapiens, UniProt Q9H461, F127V/G126N)
T1 construct: N-terminus of the Fri domain of FZD8 in turn fused to the transmembrane domain and intracellular domain of CD4 protein; expressed in transfected cells; host or cells: HEK293
T1 sequence (Q9H461 28-158 G126N/F127V): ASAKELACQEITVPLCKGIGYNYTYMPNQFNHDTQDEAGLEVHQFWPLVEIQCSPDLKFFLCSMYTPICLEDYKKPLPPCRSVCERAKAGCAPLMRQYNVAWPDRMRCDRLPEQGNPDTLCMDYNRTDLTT

T2: FZD8 (Homo sapiens, UniProt Q9H461)
T2 construct: Fc
T2 sequence (Q9H461 28-157 limits assumed): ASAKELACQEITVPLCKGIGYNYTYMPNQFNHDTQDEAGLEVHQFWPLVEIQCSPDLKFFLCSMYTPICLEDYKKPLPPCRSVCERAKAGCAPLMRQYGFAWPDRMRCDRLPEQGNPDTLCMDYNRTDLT


Key:
FZD1 = target: T3, FZD1 (Homo sapiens, UniProt Q9UP38); assay: FACS binding to FZD-transfected HEK293 cells; conditions: transfected HEK293 cells
T3 construct: plasmid DNA expressing full-length FZD1, 2, 5, 7 or 8; expressed in transfected cells; host or cells: HEK293
T3 sequence (Q9UP38 70-647): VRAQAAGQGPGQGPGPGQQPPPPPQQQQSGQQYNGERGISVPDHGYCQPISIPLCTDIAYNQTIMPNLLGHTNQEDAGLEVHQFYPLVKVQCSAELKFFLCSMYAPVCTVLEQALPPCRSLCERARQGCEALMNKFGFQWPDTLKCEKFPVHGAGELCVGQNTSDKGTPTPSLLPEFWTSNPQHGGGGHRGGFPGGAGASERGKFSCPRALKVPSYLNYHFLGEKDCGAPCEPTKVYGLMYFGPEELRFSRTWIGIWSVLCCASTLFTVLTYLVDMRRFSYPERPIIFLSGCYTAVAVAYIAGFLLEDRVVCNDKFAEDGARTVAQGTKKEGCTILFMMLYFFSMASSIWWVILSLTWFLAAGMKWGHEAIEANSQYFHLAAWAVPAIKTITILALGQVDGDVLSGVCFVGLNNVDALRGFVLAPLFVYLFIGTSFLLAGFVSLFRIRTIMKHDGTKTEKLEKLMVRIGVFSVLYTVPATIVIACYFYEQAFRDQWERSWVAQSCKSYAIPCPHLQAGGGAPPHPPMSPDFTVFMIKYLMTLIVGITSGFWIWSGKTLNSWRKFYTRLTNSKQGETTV
Procedure: (§1) To measure antibody binding to FZD by flow cytometry HEK293 cells were co-transfected with FZD expression vectors and the transfection marker GFP. Twenty-four to forty-eight hours post-transfection, cells were collected in suspension and incubated on ice with anti-FZD antibodies (10 μg/ml unless otherwise indicated) or control IgG to detect background antibody binding. The cells were washed and primary antibodies detected with Fc domain-specific secondary antibodies conjugated to a fluorescent chromophore (e.g. phycoerythrin conjugated anti-human IgG). Labeled cells were then analyzed by flow cytometry to identify anti-FZD antibodies that specifically recognize cell surface expression of FZD protein. Monoclonal antibodies 18R5 and 18R8 recognized FZD on transfected cells. As shown in FIG. 1 and FIG. 2, both 18R8 and 18R5 bind to multiple FZD including FZD1, FZD2, FZD5, FZD7, and FZD8. To examine the relative ability of 18R8 and 18R5 to bind to each FZD protein, titration analysis was conducted wherein the amount of antibody in the binding reaction was varied (FIG. 2).
(§2) HEK293 cells were co-transfected with a plasmid DNA expressing full-length FZD1, 2, 5, 7 or 8 along with another plasmid expressing the reporter gene GFP used as a transfection marker. Fugene 6 (Roche) was used as transfection reagent according to the manufacturer directions. Transfected cells were incubated twenty-four to forty-eight hours at 37° C. and 5% CO2. The anti-FZD mAbs were then diluted in a final volume of 50 μl starting with a concentration of 20 μg/ml and serially diluted 4-fold for a total of 8 dilutions. Each FZD/GFP 293 transiently tranfectant pool was collected in suspension and 100,000 transfected cells were incubated on ice 30-60 minutes with the diluted anti-FZD mAb to be tested. The cells were washed and bound anti-Fzd antibodies were detected with a secondary anti-human antibody conjugated to a fluorescent chromophore. Labeled cells were then detected and counted by FACS. The FACS data generated were expressed in Mean Fluorescence Intensity (MFI) units. GraphPad Prism software was used to graph and analyze the data. MFIs were plotted as a function of Ab concentration to establish dose-response curves. A non-linear regression was applied to the numbers to fit the curve and calculate EC50s.

FZD2 = target: T4, FZD2 (Homo sapiens, UniProt Q14332); assay: FACS binding to FZD-transfected HEK293 cells; conditions: for binding to cell-surface FZD2 by flow cytometry (in words): transfected HEK293 cells
T4 construct: plasmid DNA expressing full-length FZD1, 2, 5, 7 or 8; expressed in transfected cells; host or cells: HEK293
T4 sequence (Q14332 24-565): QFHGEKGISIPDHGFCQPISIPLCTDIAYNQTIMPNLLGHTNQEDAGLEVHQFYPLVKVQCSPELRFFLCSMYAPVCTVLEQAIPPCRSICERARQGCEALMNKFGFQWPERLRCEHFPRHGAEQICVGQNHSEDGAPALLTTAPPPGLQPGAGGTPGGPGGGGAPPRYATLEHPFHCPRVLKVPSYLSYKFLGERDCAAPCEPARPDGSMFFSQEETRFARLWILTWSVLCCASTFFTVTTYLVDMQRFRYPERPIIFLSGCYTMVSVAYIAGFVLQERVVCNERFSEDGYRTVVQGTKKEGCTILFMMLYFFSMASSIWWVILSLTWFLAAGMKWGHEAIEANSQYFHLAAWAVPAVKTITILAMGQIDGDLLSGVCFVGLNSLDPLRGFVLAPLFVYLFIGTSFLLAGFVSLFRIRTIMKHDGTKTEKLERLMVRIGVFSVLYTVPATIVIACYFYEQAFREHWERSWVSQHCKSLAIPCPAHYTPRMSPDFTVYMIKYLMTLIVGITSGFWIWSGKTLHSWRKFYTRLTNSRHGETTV
Procedure: as §1, §2

FZD5 = target: T5, FZD5 (Homo sapiens, UniProt Q13467); assay: FACS binding to FZD-transfected HEK293 cells; conditions: for EC50: FACS MFI dose-response, full-length FZD in HEK293, 20 μg/ml 4-fold dilutions; for binding to cell-surface FZD5 by flow cytometry (in words): transfected HEK293 cells
T5 construct: plasmid DNA expressing full-length FZD1, 2, 5, 7 or 8; expressed in transfected cells; host or cells: HEK293
T5 sequence (Q13467 27-585): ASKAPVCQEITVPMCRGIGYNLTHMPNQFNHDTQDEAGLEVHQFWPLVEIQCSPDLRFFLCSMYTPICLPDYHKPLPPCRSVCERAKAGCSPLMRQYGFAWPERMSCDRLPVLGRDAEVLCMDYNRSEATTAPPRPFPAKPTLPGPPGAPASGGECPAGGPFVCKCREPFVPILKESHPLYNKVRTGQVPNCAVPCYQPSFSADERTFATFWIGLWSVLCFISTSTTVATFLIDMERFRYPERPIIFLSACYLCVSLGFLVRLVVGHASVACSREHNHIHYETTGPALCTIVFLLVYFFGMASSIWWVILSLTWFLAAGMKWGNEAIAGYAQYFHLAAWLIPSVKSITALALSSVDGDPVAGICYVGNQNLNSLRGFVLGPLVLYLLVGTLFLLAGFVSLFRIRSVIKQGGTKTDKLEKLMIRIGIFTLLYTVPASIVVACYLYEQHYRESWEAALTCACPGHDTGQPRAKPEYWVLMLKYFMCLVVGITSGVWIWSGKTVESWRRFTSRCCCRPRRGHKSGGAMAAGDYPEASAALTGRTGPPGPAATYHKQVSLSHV
Procedure: as §1, §2

FZD7 = target: T6, FZD7 (Homo sapiens, UniProt O75084); assay: FACS binding to FZD-transfected HEK293 cells; conditions: transfected HEK293 cells
T6 construct: plasmid DNA expressing full-length FZD1, 2, 5, 7 or 8; expressed in transfected cells; host or cells: HEK293
Procedure: as §1, §2

FZD8 [1] = target: T7, FZD8 (Homo sapiens, UniProt Q9H461); assay: FACS binding to FZD-transfected HEK293 cells; conditions: for EC50: FACS MFI dose-response, full-length FZD in HEK293, 20 μg/ml 4-fold dilutions; for binding to cell-surface FZD8 by flow cytometry (in words): transfected HEK293 cells
T7 construct: plasmid DNA expressing full-length FZD1, 2, 5, 7 or 8; expressed in transfected cells; host or cells: HEK293
Procedure: as §1, §2
T7 sequence (Q9H461 28-694): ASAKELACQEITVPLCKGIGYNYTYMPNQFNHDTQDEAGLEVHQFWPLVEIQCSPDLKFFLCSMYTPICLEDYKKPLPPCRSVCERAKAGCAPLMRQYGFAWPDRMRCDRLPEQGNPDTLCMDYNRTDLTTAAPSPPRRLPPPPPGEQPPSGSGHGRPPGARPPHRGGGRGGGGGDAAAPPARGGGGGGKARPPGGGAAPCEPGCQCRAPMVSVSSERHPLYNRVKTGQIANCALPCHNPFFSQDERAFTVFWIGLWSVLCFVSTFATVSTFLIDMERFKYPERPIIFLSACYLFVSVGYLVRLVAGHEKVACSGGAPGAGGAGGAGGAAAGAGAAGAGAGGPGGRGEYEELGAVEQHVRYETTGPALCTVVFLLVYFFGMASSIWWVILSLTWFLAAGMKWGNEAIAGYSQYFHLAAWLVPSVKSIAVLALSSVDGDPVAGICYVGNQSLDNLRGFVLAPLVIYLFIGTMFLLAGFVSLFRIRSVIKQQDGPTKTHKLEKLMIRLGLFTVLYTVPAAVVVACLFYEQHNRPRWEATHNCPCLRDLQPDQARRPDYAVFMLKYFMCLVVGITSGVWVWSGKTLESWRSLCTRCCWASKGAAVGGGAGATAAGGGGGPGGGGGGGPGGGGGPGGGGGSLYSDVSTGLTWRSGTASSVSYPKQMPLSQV

FZD8 [2] = target: T1, FZD8; assay: Epitope mapping by FACS on FZD8 Fri domain variants on HEK293 cells; type: binding; conditions: amino acids 126-127 mutated from FG to NV
Procedure: To identify the FZD epitope recognized by the 18R8 IgG antibody, epitope mapping was performed. Flow cytometry analysis of cell surface expressed FZD was utilized to measure antibody binding. Mammalian expression plasmid vectors comprising a CMV promoter upstream of polynucleotides that encode an N-terminal signal sequence FLAG epitope tag fused to the N-terminus of the Fri domain of FZD8 in turn fused to the transmembrane domain and intracellular domain of CD4 protein were generated by standard recombinant technology. This expression construct allows expression of the FZD8 Fri domain on the cell surface, as well as expression of a FLAG epitope tag to monitor expression. Site-direct mutagenesis was then used to modify selected amino acids within the extracellular domain of FZD. HEK293 cells were co-transfected with expression vectors encoding the FZD and the transfection marker GFP. Forty-eight hours post-transfection, cells were collected in suspension and incubated on ice with anti-FZD antibody or control IgG to detect background antibody binding. The cells were washed and primary antibodies detected with anti-antibody secondary antibodies conjugated to a fluorescent chromophore. Labeled cells were then analyzed by flow cytometry to measure the binding of anti-FZD antibody to cell surface FZD.
Epitope mapping for the anti-FZD antibody 44R24 was performed in a manner similar to that described above in Example 5 for the antibodies 18R8 and 18R5. The ability of 44R24 to bind to a similar epitope as 18R8 was assessed by flow cytometry using a series of amino acid variants of FZD8 previously shown to disrupt binding of 18R8 (see Example 5 and FIGS. 6 and 7).

C28 tumor cells = assay: C28 colon tumor growth study; type: in vivo, Nod-Scid mice; conditions: 15 mg/kg intraperitoneally twice per week
Procedure: C28 tumor cells were injected sub-cutaneously in Nod-Scid mice. Tumors were allowed to grow until they had reached an average volume of 126 mm^3. Tumor bearing animals were groups were randomized into four groups (n=10 mice per group) and treated with either Control Ab (black squares), 18R8 (gray triangles), 44R24 (black open circles), or 18R5 (gray circles) (FIG. 58). Antibodies were dosed intraperitoneally at 15 mg/kg, twice per week. Tumor volumes are indicated.

FZD8 [3] = target: T2, FZD8; assay: Biacore affinity to recombinant Fzd Fc protein; type: binding; conditions: IgG antibody; Fzd Fc immobilized on CM5 Biacore chip
Procedure: The KDs of 18R8 and 18R5 antibodies were determined using the Biacore 2000 system from Biacore Lifescience (GE Healthcare). Specifically, purified anti-Fzd7 antibodies were serially diluted in 2-fold increments from 100 to 0.78 nM in HBS-P (0.01 M HEPES pH 7.4, 0.15 M NaCl, 0.005% v/v Surfactant P20). Each dilution was tested against recombinant Fzd Fc proteins immobilized onto a CM5 Biacore chip. The association and dissociation rates were measured and KD values determined using the Biaevaluation software program (Table 5, below).

| Molecule | binding to cell-surface FZD1 by flow cytometry (in words) (FZD1) | EC50 (nM) Fzd2 (FZD2; FACS MFI dose-response, full-length FZD in HEK293, 20 μg/ml 4-fold dilutions) | binding to cell-surface FZD2 by flow cytometry (in words) (FZD2) | EC50 (FZD5) [nM] | binding to cell-surface FZD5 by flow cytometry (in words) (FZD5) | binding to cell-surface FZD7 by flow cytometry (in words) (FZD7) | EC50 (FZD8 [1]) [nM] | binding to cell-surface FZD8 by flow cytometry (in words) (FZD8 [1]) | binding to FZD8 variant (FZD8 [2]) | tumor growth relative to the control group (C28 tumor cells) | Kd (FZD8 [3]) [nM] |
| --- | --- | --- | --- | --- | --- | --- | --- | --- | --- | --- | --- |
| 44R24: anti-FZD5/8 IgG antibody, VH SEQ ID NO:85, VL SEQ ID NO:86; ATCC deposit no. PTA-10311 (antibody, V domains shown, 44R24 VH; 44R24 VL, ATCC deposit no; PTA-10311) VH: EVQLVESGGGLVQPGGSLRLSCAASGFTFSSYYITWVRQAPGKGLEWVSTISYSSSNTYYADSVKGRFTISRDNSKNTLYLQMNSLRAEDTAVYYCARSIVFDYWGQGTLVTVSS VL: DIELTQPPSVSVAPGQTARISCSGDALGNRYVYWYQQKPGQAPVLVIPSGIPERFSGSNSGNTATLTISGTQAEDEADYYCGSWDTRPYPKYVFGGGTKLTVLG | does not bind | no binding | does not bind | 1.89 | good affinity | does not bind | 1.09 | good affinity | reduced staining | reduced growth relative to the control group | – |
| 18R5: human anti-FZD antibody; VH SEQ ID NO:10 (as 18R8), VL SEQ ID NO:14; binds FZD1, 2, 5, 7, 8 (antibody, V domains shown, 18R5/18R8 heavy chain variable region (VH); 18R5 light chain variable region (VL)) VH: EVQLVESGGGLVQPGGSLRLSCAASGFTFSHYTLSWVRQAPGKGLEWVSVISGDGSYTYYADSVKGRFTISSDNSKNTLYLQMNSLRAEDTAVYYCARNFIKYVFANWGQGTLVTVSS VL: DIELTQPPSVSVAPGQTARISCSGDNIGSFYVHWYQQKPGQAPVLVIYDKSNRPSGIPERFSGSNSGNTATLTISGTQAEDEADYYCQSYANTLSLVFGGGTKLTVLG | bind and greater binding potency and High affinity binding | – | bind and greater binding potency and High affinity binding | 1.1 | bind and greater binding potency and High affinity binding | bind and greater binding potency and High affinity binding | 12 | greater binding potency and bind | reduced staining | reduced growth relative to the control group | 5.8 |
| 18R8: human anti-FZD antibody from phage display; VH SEQ ID NO:10, VL SEQ ID NO:12; binds FZD1, 2, 5, 7, 8 (antibody, V domains shown, 18R5/18R8 heavy chain variable region (VH); 18R8 light chain variable region (VL)) VH: EVQLVESGGGLVQPGGSLRLSCAASGFTFSHYTLSWVRQAPGKGLEWVSVISGDGSYTYYADSVKGRFTISSDNSKNTLYLQMNSLRAEDTAVYYCARNFIKYVFANWGQGTLVTVSS VL: DIELTQPPSVSVAPGQTARISCSGDKLGKKYASWYQQKPGQAPVLVIYEKDNRPSGIPERFSGSNSGNTATLTISGTQAEDEADYYCSSFAGNSLEVFGGGTKLTVLG | bind | – | bind | – | bind | bind | – | bind | similarly lost | had no effect | 29.3 |
